Results from patent US11433099B2, “Immunotherapy with B*08 restricted peptides and combination of peptides against cancers and related methods” (Immatics Biotechnologies GmbH, priority 2018, dated 2022).

Columns and labels:
HLA-B*44:05 = HLA-B*44:05 (Homo sapiens, UniProt P01889, A223V/A65T/A93T/A95T/D201E/D98Y/E176V/E187L/E204Q/E69K/G107R/H137Y/K202T/L105A/L119I/N104T/N87E/Q56L/Q94N/R106L/R155S/R180D/S101N/S121R/S35A/S48T/T118I/V36M/W191S/Y91S); test: MHC binding assay (UV-ligand exchange, beta2m ELISA); details: Table 11B, peptide exchange yield
Procedure, shortened: (§1)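 Peptide–HLA complexes generated by UV-ligand exchange of a UV-cleavable peptide for the test peptide; exchange yield read by β2m ELISA on streptavidin capture (samples diluted 100-fold, 1 h 37 °C), HRP anti-β2m, TMB, A450. Quantified against refolded HLA-A*02:01/MLA-001 monomer standards (15-500 ng/ml).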

[1] = test system: CD8+ T cells of healthy HLA-B*08 donors; test: In vitro T-cell priming assay with aAPCs loaded with peptide/MHC complexes and anti-CD28 antibody, pMHC multimer readout; format: cell-based, human; details: in vitro immunogenicity, HLA class I peptides, Table 10B
Description: In order to obtain information regarding the immunogenicity of the TUMAPs of the present invention, the inventors performed investigations using an in vitro T-cell priming assay based on repeated stimulations of CD8+ T cells with artificial antigen presenting cells (aAPCs) loaded with peptide/MHC complexes and anti-CD28 antibody.
In order to perform in vitro stimulations by artificial antigen presenting cells loaded with peptide-MHC complex (pMHC) and anti-CD28 antibody, the inventors first isolated CD8+ T cells from fresh HLA-B*08 leukapheresis products via positive selection using CD8 microbeads (Miltenyi Biotec, Bergisch-Gladbach, Germany) of healthy donors obtained from the University clinics Mannheim, Germany, after informed consent.
PBMCs and isolated CD8+ lymphocytes were incubated in T-cell medium (TCM) until use consisting of RPMI-Glutamax (Invitrogen, Karlsruhe, Germany) supplemented with 10% heat inactivated human AB serum (PAN-Biotech, Aidenbach, Germany), 100 U/ml Penicillin/100 μg/ml Streptomycin (Cambrex, Cologne, Germany), 1 mM sodium pyruvate (CC Pro, Oberdorla, Germany), 20 μg/ml Gentamycin (Cambrex). 2.5 ng/ml IL-7 (PromoCell, Heidelberg, Germany) and 10 U/ml IL-2 (Novartis Pharma, Nornberg, Germany) were also added to the TCM at this step.
Generation of pMHC/anti-CD28 coated beads, T-cell stimulations and readout was performed in a highly defined in vitro system using four different pMHC molecules per stimulation condition and 8 different pMHC molecules per readout condition.
The purified co-stimulatory mouse IgG2a anti human CD28 Ab 9.3 (Jung et al., 1987) was chemically biotinylated using Sulfo-N-hydroxysuccinimidobiotin as recommended by the manufacturer (Perbio, Bonn, Germany). Beads used were 5.6 μm diameter streptavidin coated polystyrene particles (Bangs Laboratories, Illinois, USA).
800.000 beads/200 μl were coated in 96-well plates in the presence of 4×12.5 ng different biotin-pMHC, washed and 600 ng biotin anti-CD28 were added subsequently in a volume of 200 μl. Stimulations were initiated in 96-well plates by co-incubating 1×10^6 CD8+ T cells with 2×10^5 washed coated beads in 200 μl TCM supplemented with 5 ng/ml IL-12 (PromoCell) for 3 days at 37° C. Half of the medium was then exchanged by fresh TCM supplemented with 80 U/ml IL-2 and incubating was continued for 4 days at 37° C. This stimulation cycle was performed for a total of three times. For the pMHC multimer readout using 8 different pMHC molecules per condition, a two-dimensional combinatorial coding approach was used as previously described (Andersen et al., 2012) with minor modifications encompassing coupling to 5 different fluorochromes. Finally, multimeric analyses were performed by staining the cells with Live/dead near IR dye (Invitrogen, Karlsruhe, Germany), CD8-FITC antibody clone SK1 (BD, Heidelberg, Germany) and fluorescent pMHC multimers. For analysis, a BD LSRII SORP cytometer equipped with appropriate lasers and filters was used. Peptide specific cells were calculated as percentage of total CD8+ cells. Evaluation of multimeric analysis was done using the FlowJo software (Tree Star, Oregon, USA). In vitro priming of specific multimer+CD8+ lymphocytes was detected by comparing to negative control stimulations.

HLA-B*08:01 = HLA-B*08:01 (Homo sapiens, UniProt P01889); test: MHC binding assay (UV-ligand exchange, beta2m ELISA); details: MHC class I binding score; binding to HLA-B*08:01 ranged by peptide exchange yield (UV-ligand exchange, β2m ELISA)
Procedure, shortened: as §1

HLA-A*02:01 = HLA-A*02:01 (Homo sapiens, UniProt P04439, D140Y/D185E/D98H/E176V/E277Q/G131W/G231S/I119V/I121R/I166T/I218V/L300P/L318F/N151K/N90K/P208A/P217A/Q86G/Q94H/R138H/R169H/T345S); test: as above; details: Table 11C, peptide exchange yield
Procedure, shortened: as §1

290 (EEFLTPKKL; listed as Homo sapiens) [compound 290]
Peptide exchange (HLA-B*44:05): +++ (≥50% = +++)

62 (FMLAKEASL; listed as Homo sapiens) [compound 62]
Wells positive [%] [1]: + (<20% = +) | Peptide exchange (HLA-B*08:01): ++ (20% = ++)

13 (EPFTRPVL; listed as Homo sapiens) [compound 13]
Wells positive [%] [1]: + (<20% = +) | Peptide exchange (HLA-B*08:01): ++ (20% = ++)

45 (RLKVALSTL; listed as Homo sapiens) [compound 45]
Wells positive [%] [1]: + (<20% = +) | Peptide exchange (HLA-B*08:01): +++ (50% = +++)

71 (HIRIKHTF; listed as Homo sapiens) [compound 71]
Wells positive [%] [1]: ++ (20%-49% = ++) | Peptide exchange (HLA-B*08:01): +++ (50% = +++)

38 (EVYQKIIL; listed as Homo sapiens) [compound 38]
Wells positive [%] [1]: ++++ (>=70% = ++++) | Peptide exchange (HLA-B*08:01): +++ (50% = +++)

29 (ELFLHPVL; listed as Homo sapiens) [compound 29]
Wells positive [%] [1]: ++ (20%-49% = ++) | Peptide exchange (HLA-B*08:01): ++ (20% = ++)

78 (DGHMKVFSL; listed as Homo sapiens) [compound 78]
Wells positive [%] [1]: ++ (20%-49% = ++) | Peptide exchange (HLA-B*08:01): ++ (20% = ++)

22 (EVRLKPIL; listed as Homo sapiens) [compound 22]
Wells positive [%] [1]: + (<20% = +) | Peptide exchange (HLA-B*08:01): ++ (20% = ++)

42 (VLRRKTLL; listed as Homo sapiens) [compound 42]
Wells positive [%] [1]: + (<20% = +) | Peptide exchange (HLA-B*08:01): ++ (20% = ++)

33 (WIGLRNLDL; listed as Homo sapiens) [compound 33]
Wells positive [%] [1]: + (<20% = +) | Peptide exchange (HLA-B*08:01): +++ (50% = +++)

291 (YVYANHFTEA; listed as Homo sapiens) [compound 291]
Peptide exchange (HLA-A*02:01): ++++ (≥75% = ++++)

76 (HPRLKVNLL; listed as Homo sapiens) [compound 76]
Wells positive [%] [1]: + (<20% = +) | Peptide exchange (HLA-B*08:01): +++ (50% = +++)

10 (MGKFKQCF; listed as Homo sapiens) [compound 10]
Wells positive [%] [1]: ++++ (>=70% = ++++) | Peptide exchange (HLA-B*08:01): +++ (50% = +++)

8 (FVRPKLVTI; listed as Homo sapiens) [compound 8]
Wells positive [%] [1]: + (<20% = +) | Peptide exchange (HLA-B*08:01): +++ (50% = +++)

1 (ALKLKVAEL; listed as Homo sapiens) [compound 1]
Wells positive [%] [1]: ++ (20%-49% = ++) | Peptide exchange (HLA-B*08:01): ++ (20% = ++)

5 (STMPKILAL; listed as Homo sapiens) [compound 5]
Wells positive [%] [1]: + (<20% = +) | Peptide exchange (HLA-B*08:01): +++ (50% = +++)

9 (LLKGKPRAL; listed as Homo sapiens) [compound 9]
Wells positive [%] [1]: + (<20% = +) | Peptide exchange (HLA-B*08:01): ++ (20% = ++)

63 (YVKRKTNVL; listed as Homo sapiens) [compound 63]
Wells positive [%] [1]: + (<20% = +) | Peptide exchange (HLA-B*08:01): ++ (20% = ++)

47 (HSRVKLAQL; listed as Homo sapiens) [compound 47]
Wells positive [%] [1]: ++ (20%-49% = ++) | Peptide exchange (HLA-B*08:01): ++ (20% = ++)

49 (FLRVFTDSL; listed as Homo sapiens) [compound 49]
Wells positive [%] [1]: + (<20% = +) | Peptide exchange (HLA-B*08:01): +++ (50% = +++)

40 (ESMLKTTL; listed as Homo sapiens) [compound 40]
Wells positive [%] [1]: + (<20% = +) | Peptide exchange (HLA-B*08:01): ++ (20% = ++)

20 (ILKRFLAC; listed as Homo sapiens) [compound 20]
Wells positive [%] [1]: + (<20% = +) | Peptide exchange (HLA-B*08:01): +++ (50% = +++)

83 (FVLLRSVDL; listed as Homo sapiens) [compound 83]
Wells positive [%] [1]: +++ (50%-69%= +++) | Peptide exchange (HLA-B*08:01): +++ (50% = +++)

18 (LSLVRKAL; listed as Homo sapiens) [compound 18]
Wells positive [%] [1]: ++ (20%-49% = ++) | Peptide exchange (HLA-B*08:01): +++ (50% = +++)

36 (IVKIKVQEL; listed as Homo sapiens) [compound 36]
Wells positive [%] [1]: ++ (20%-49% = ++) | Peptide exchange (HLA-B*08:01): ++ (20% = ++)

89 (VPYTKVQL; listed as Homo sapiens) [compound 89]
Wells positive [%] [1]: + (<20% = +) | Peptide exchange (HLA-B*08:01): +++ (50% = +++)

37 (EAFSRASL; listed as Homo sapiens) [compound 37]
Wells positive [%] [1]: ++ (20%-49% = ++) | Peptide exchange (HLA-B*08:01): ++ (20% = ++)

25 (HLHPKGREL; listed as Homo sapiens) [compound 25]
Wells positive [%] [1]: ++ (20%-49% = ++) | Peptide exchange (HLA-B*08:01): ++ (20% = ++)

68 (DLKIPRYPV; listed as Homo sapiens) [compound 68]
Wells positive [%] [1]: +++ (50%-69%= +++) | Peptide exchange (HLA-B*08:01): +++ (50% = +++)

58 (LPKKMKLL; listed as Homo sapiens) [compound 58]
Wells positive [%] [1]: ++ (20%-49% = ++) | Peptide exchange (HLA-B*08:01): ++ (20% = ++)

57 (MPLKHYLL; listed as Homo sapiens) [compound 57]
Wells positive [%] [1]: +++ (50%-69%= +++) | Peptide exchange (HLA-B*08:01): ++ (20% = ++)

74 (RLKLRYEGL; listed as Homo sapiens) [compound 74]
Wells positive [%] [1]: ++ (20%-49% = ++) | Peptide exchange (HLA-B*08:01): +++ (50% = +++)

34 (IYRKKYIL; listed as Homo sapiens) [compound 34]
Wells positive [%] [1]: + (<20% = +) | Peptide exchange (HLA-B*08:01): ++ (20% = ++)

19 (FTLLRRLSL; listed as Homo sapiens) [compound 19]
Wells positive [%] [1]: ++++ (>=70% = ++++) | Peptide exchange (HLA-B*08:01): +++ (50% = +++)

35 (ELFQRPVL; listed as Homo sapiens) [compound 35]
Wells positive [%] [1]: + (<20% = +) | Peptide exchange (HLA-B*08:01): ++ (20% = ++)

31 (SPRVKWTF; listed as Homo sapiens) [compound 31]
Wells positive [%] [1]: ++++ (>=70% = ++++) | Peptide exchange (HLA-B*08:01): ++ (20% = ++)

66 (DLKKTRVL; listed as Homo sapiens) [compound 66]
Wells positive [%] [1]: + (<20% = +) | Peptide exchange (HLA-B*08:01): ++ (20% = ++)
